Reference: patent US20180057581A1 (MorphoSys, published 2018)

T1: human M-CSF (human, UniProt P09603 33-255, limits assumed)
T1 construct: also called M-CSF (human); CSF-1
T1 sequence: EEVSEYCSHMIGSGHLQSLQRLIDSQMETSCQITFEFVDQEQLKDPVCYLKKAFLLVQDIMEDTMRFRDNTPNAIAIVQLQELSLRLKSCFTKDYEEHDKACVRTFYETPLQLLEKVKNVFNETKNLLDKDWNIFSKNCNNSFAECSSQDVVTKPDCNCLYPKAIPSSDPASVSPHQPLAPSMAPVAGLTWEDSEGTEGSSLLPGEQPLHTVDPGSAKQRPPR

T2: Recombinant cynomolgus monkey sgM-CSF (cynomolgus (Macaca fascicularis), UniProt P09603 33-255 (human entry), limits assumed)
T2 construct: used also where only 'cynomolgus M-CSF' is printed (ELISA result, SET); also called cynomolgus sgM-CSF; cyno sgM-CSF
T2 chain: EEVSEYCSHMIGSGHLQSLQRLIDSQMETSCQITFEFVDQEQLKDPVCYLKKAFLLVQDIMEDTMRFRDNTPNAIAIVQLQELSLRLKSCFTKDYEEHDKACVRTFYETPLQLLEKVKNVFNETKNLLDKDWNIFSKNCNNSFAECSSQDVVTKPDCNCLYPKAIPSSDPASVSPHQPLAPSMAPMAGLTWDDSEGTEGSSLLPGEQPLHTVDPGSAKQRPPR


Tests used:
human M-CSF [1] = biological target: T1, human M-CSF; assay: soluble equilibrium titration (SET), Fab, monovalent
Experimental: (§1) The monovalent affinity of the antibodies of the present disclosure was determined by soluble equilibrium titration (Haenel et al. (2005) Anal Biochem 339, 182-4).

[2] = biological target: T2, Recombinant cynomolgus monkey sgM-CSF; assay: as above
Experimental: as §1

human M-CSF [3] = biological target: T1, human M-CSF; assay: ELISA
Experimental: (§2) BSA was used as a negative control substrate.
(§3) After blocking of plates with 5% skim milk powder in PBS, Fab-containing E. coli lysates, IgG-containing cell culture supernatants or purified IgG or Fab proteins were added. Binding of Fabs or IgGs was detected by F(ab)₂ specific goat anti-human IgG conjugated to alkaline phosphatase (Dianova Cat# 109-055-097; diluted 1:5000) using Attophos fluorescence substrate (Roche, #11681982001). Fluorescence emission at 535 nm was recorded with excitation at 430 nm.

[4] = biological target: T2, Recombinant cynomolgus monkey sgM-CSF; assay: ELISA
Experimental: as §2, §3

Row | Binder | Kd (human M-CSF [1]) | Kd [2] | ELISA fluorescence units (human M-CSF [3]) | ELISA fluorescence units [4]
1 | HeRX1-10G1, Fab (Fab, V domains shown, Prior art antibody) VH: QVQLQESGPGLVKPSQTLSLTCTVSDYSITSDYAWNWIRQFPGKGLEWMGYISYSGSTSYNPSLKSRITISRDTSKNQFSLQLNSVTAADTAVYYCASFDYAHAMDYWGQGTTVTVSS VL: DIVLTQSPAFLSVTPGEKVTFTCQASQSIGTSIHWYQQKTDQAPKLLIKYASESISGIPSRFSGSGSGTDFTLTISSVEAEDAADYYCQQINSWPTTFGGGTKLEIKR | > 1 nM |  |  | 
2 | 8.10.3F, Fab (Fab, V domains shown, Prior art antibody; also called 8.10.F3) VH: EVQLVESGGGLVQPGGSLRLSCAASGFTFSSFSMTWVRQAPGKGLEWVSYISSRSSTISYADSVKGRFTISRDNAKNSLYLQMNSLRDEDTAVYYCARDPLLAGATFFDYWGQGTLVTVSS VL: not shown | 0.038 nM |  |  | 
3 | Blanche, Fab (Fab, V domains shown) VH: QVQLQQSGPGLVKPSQTLSLTCAISGDSVSSNSAAWNWIRQSPSRGLEWLGRTYYRSKWKHEYAMSVKSRITINPDTSKNQFSLQLNSVTPEDTAVYYCARDRYYYSAFDYWGQGTLVTVSS VL: DIALTQPASVSGSPGQSITISCTGTSSDVGGYNSVSWYQQHPGKAPKLMIYAVSNRPSGVSNRFSGSKSGNTASLTISGLQAEDEADYYCASYDERFTRVFGGGTKLTVLG | 0.096 nM | 0.13 nM |  | 
4 | Blanche (format not stated) (antibody, V domains shown) VH: QVQLQQSGPGLVKPSQTLSLTCAISGDSVSSNSAAWNWIRQSPSRGLEWLGRTYYRSKWKHEYAMSVKSRITINPDTSKNQFSLQLNSVTPEDTAVYYCARDRYYYSAFDYWGQGTLVTVSS VL: DIALTQPASVSGSPGQSITISCTGTSSDVGGYNSVSWYQQHPGKAPKLMIYAVSNRPSGVSNRFSGSKSGNTASLTISGLQAEDEADYYCASYDERFTRVFGGGTKLTVLG |  |  | > 35000 units | > 35000 units
5 | Caline, Fab (Fab, V domains shown) VH: QVQLQQSGPGLVKPSQTLSLTCAISGDSVSSNSAAWNWIRQSPSRGLEWLGRTYYRSKWKHEYAMSVKSRITINPDTSKNQFSLQLNSVTPEDTAVYYCARDRYYYSAFDYWGQGTLVTVSS VL: QSALTQPASVSGSPGQSITISCTGTSSDVGGYNSVSWYQQHPGKAPKLMIYAVSNRPSGVSNRFSGSKSGNTASLTISGLQAEDEADYYCASYDERFTRVFGGGTKLTVLG | 0.014 nM | 0.016 nM |  | 
6 | Laurine (format not stated) (antibody, V domains shown) VH: QVQLQQSGPGLVKPSQTLSLTCAISGDSVSSNSAAWNWIRQSPSRGLEWLGRTYYRSKWKKEYAQSVKSRITINPDTSKNQFSLQLNSVTPEDTAVYYCARDRYYYSAFDYWGQGTLVTVSS VL: DIALTQPASVSGSPGQSITISCTGTSSDVGGYNSVSWYQQHPGKAPKLMIYAVSNRPSGVSNRFSGSKSGNTASLTISGLQAEDEADYYCASYDERFTRVFGGGTKLTVLG |  |  | > 35000 units | > 35000 units
7 | Camille, Fab (Fab, V domains shown) VH: QVQLQQSGPGLVKPSQTLSLTCAISGESVSTSSAAWNWIRQSPSRGLEWLGRTYYRSKWKHEYAVSVKSRITINPDTSKNQFSLQLNSVTPEDTAVYYCARDRYYYSAFDYWGQGTLVTVSS VL: QSALTQPASVSGSPGQSITISCTGTSSDVGGYNSVSWYQQHPGKAPKLLIYAVSNRPSGVSNRFSGSKSGNTASLTISGLQAEDEADYYCASYDERFTRVFGGGTKLTVLG | 0.018 nM | 0.025 nM |  | 
8 | Satine (format not stated) (antibody, V domains shown) VH: EVQLVESGGGLVKPGGSLRLSCAASGFTFSIYAMSWVRQAPGKGLEWVGRIKSNADGGTTEYAAPVKGRFTISRDDSKNTLYLQMNSLKTEDTAVYYCARMRYYSDLYFDPWGQGTLVTVSS VL: SYELTQPPSVSVSPGQTASITCSGDKLGQKYVSWYQQKPGQSPVLVISQDRKRPSGIPERFSGSNSGNTATLTISGTQAEDEADYYCQTWTHLQWVFGGGTKLTVLG |  |  | > 35000 units | > 35000 units

The remaining lines, values ahead:

Row | Kd (human M-CSF [1]) | Kd [2] | ELISA fluorescence units (human M-CSF [3]) | ELISA fluorescence units [4] | Binder
9 | 0.028 nM | 0.03 nM |  |  | Madeleine, Fab (Fab, V domains shown) VH: QVQLQQSGPGLVKPSQTLSLTCAISGDSVSSNSAAWNWIRQSPSRGLEWLGRTYYRSKWKKEYAQSVKSRITINPDTSKNQFSLQLNSVTPEDTAVYYCARDRYYYSAFDYWGQGTLVTVSS VL: QSALTQPASVSGSPGQSITISCTGTSSDVGGYNSVSWYQQHPGKAPKLMIYAVSNRPSGVSNRFSGSKSGNTASLTISGLQAEDEADYYCASYDERFTRVFGGGTKLTVLG
10 | 0.013 nM | 0.027 nM |  |  | Maelle, Fab (Fab, V domains shown) VH: QVQLQQSGPGLVKPSQTLSLTCAISGESVSTSSAAWNWIRQSPSRGLEWLGRTYYRSKWKKEYAQSVKSRITINPDTSKNQFSLQLNSVTPEDTAVYYCARDRYYYSAFDYWGQGTLVTVSS VL: QSALTQPASVSGSPGQSITISCTGTSSDVGGYNSVSWYQQHPGKAPKLIIYAVSNRPSGVSNRFSGSKSGNTASLTISGLQAEDEADYYCASYDERFTRVFGGGTKLTVLG
11 | 0.011 nM | 0.013 nM |  |  | Meriem, Fab (Fab, V domains shown) VH: QVQLQQSGPGLVKPSQTLSLTCAISGDSVSTSSAAWNWIRQSPSRGLEWLGRTYYRSKWKKEYAQSVKSRITINPDTSKNQFSLQLNSVTPEDTAVYYCARDRYYYSAFDYWGQGTLVTVSS VL: QSALTQPASVSGSPGQSITISCTGTSSDVGGYNSVSWYQQHPGKAPKLIIYAVSNRPSGVSNRFSGSKSGNTASLTISGLQAEDEADYYCASYDERFTRVFGGGTKLTVLG
12 |  |  | > 35000 units | > 35000 units | Meriem (format not stated) (antibody, V domains shown) VH: QVQLQQSGPGLVKPSQTLSLTCAISGDSVSTSSAAWNWIRQSPSRGLEWLGRTYYRSKWKKEYAQSVKSRITINPDTSKNQFSLQLNSVTPEDTAVYYCARDRYYYSAFDYWGQGTLVTVSS VL: QSALTQPASVSGSPGQSITISCTGTSSDVGGYNSVSWYQQHPGKAPKLIIYAVSNRPSGVSNRFSGSKSGNTASLTISGLQAEDEADYYCASYDERFTRVFGGGTKLTVLG
13 | 0.096 nM | 0.15 nM |  |  | Laurine, Fab (Fab, V domains shown) VH: QVQLQQSGPGLVKPSQTLSLTCAISGDSVSSNSAAWNWIRQSPSRGLEWLGRTYYRSKWKKEYAQSVKSRITINPDTSKNQFSLQLNSVTPEDTAVYYCARDRYYYSAFDYWGQGTLVTVSS VL: DIALTQPASVSGSPGQSITISCTGTSSDVGGYNSVSWYQQHPGKAPKLMIYAVSNRPSGVSNRFSGSKSGNTASLTISGLQAEDEADYYCASYDERFTRVFGGGTKLTVLG
14 |  |  | > 35000 units | > 35000 units | Maelle (format not stated) (antibody, V domains shown) VH: QVQLQQSGPGLVKPSQTLSLTCAISGESVSTSSAAWNWIRQSPSRGLEWLGRTYYRSKWKKEYAQSVKSRITINPDTSKNQFSLQLNSVTPEDTAVYYCARDRYYYSAFDYWGQGTLVTVSS VL: QSALTQPASVSGSPGQSITISCTGTSSDVGGYNSVSWYQQHPGKAPKLIIYAVSNRPSGVSNRFSGSKSGNTASLTISGLQAEDEADYYCASYDERFTRVFGGGTKLTVLG
15 | 0.013 nM | 0.007 nM |  |  | Romaine, Fab (Fab, V domains shown) VH: EVQLVESGGGLVKPGGSLRLSCAASGFTFSIYAMSWVRQAPGKGLEWVGRIKSNADGGTTEYAAPVKGRFTISRDDSKNTLYLQMNSLKTEDTAVYYCARMRYYSDLYFDPWGQGTLVTVSS VL: DIELTQPPSVSVSPGQTASITCSGDAIGSKYVHWYQQKPGQAPVLVISKDNKRPSGIPERFSGSNSGNTATLTISGTQAEDEADYYCQTATVSSYWWVFGGGTKLTVLG
16 |  |  | > 35000 units | > 35000 units | Romaine (format not stated) (antibody, V domains shown) VH: EVQLVESGGGLVKPGGSLRLSCAASGFTFSIYAMSWVRQAPGKGLEWVGRIKSNADGGTTEYAAPVKGRFTISRDDSKNTLYLQMNSLKTEDTAVYYCARMRYYSDLYFDPWGQGTLVTVSS VL: DIELTQPPSVSVSPGQTASITCSGDAIGSKYVHWYQQKPGQAPVLVISKDNKRPSGIPERFSGSNSGNTATLTISGTQAEDEADYYCQTATVSSYWWVFGGGTKLTVLG
17 | < 0.002 nM |  |  |  | Satine, Fab (Fab, V domains shown) VH: EVQLVESGGGLVKPGGSLRLSCAASGFTFSIYAMSWVRQAPGKGLEWVGRIKSNADGGTTEYAAPVKGRFTISRDDSKNTLYLQMNSLKTEDTAVYYCARMRYYSDLYFDPWGQGTLVTVSS VL: SYELTQPPSVSVSPGQTASITCSGDKLGQKYVSWYQQKPGQSPVLVISQDRKRPSGIPERFSGSNSGNTATLTISGTQAEDEADYYCQTWTHLQWVFGGGTKLTVLG
18 |  |  | > 35000 units | > 35000 units | Servane (format not stated) (antibody, V domains shown) VH: EVQLVESGGGLVKPGGSLRLSCAASGFTFSTYAISWVRQAPGKGLEWVGFIKSKHNSGTTEYAAPVKGRFTISRDDSKNTLYLQMNSLKTEDTAVYYCARMRYYSDLYFDPWGQGTLVTVSS VL: SYELTQPPSVSVSPGQTASITCSGDKLGQKYVSWYQQKPGQSPVLVISQDRKRPSGIPERFSGSNSGNTATLTISGTQAEDEADYYCQTWTHLQWVFGGGTKLTVLG
